Measurements as given in patent US8871276B2, “Beta-casein assemblies for mucosal delivery of therapeutic bioactive agents” (Technion Research and Development Foundation Ltd., priority 2008, dated 2014).

How the values were obtained:
Type in all cases: physicochemical
[1] = Analytical ultracentrifugation (sedimentation equilibrium)
Method: Sedimentation equilibrium experiments were performed at 24° C. using a Beckman Optima XL-A (Palo Alto, Calif.) analytical centrifuge at 6,000, 10,000, and 12,000 rpm for the low-pH solutions and at 4,000, 6,000, and 8,000 rpm for the pH 7.0 solutions. Data were collected at 280 nm. The β-casein solutions were studied at concentrations ranging from 0.2 to 10.0 mg/mL at pH 2.6 and from 0.2 to 2 mg/mL at pH 7.0 and an ionic strength of 0.1. […] The average apparent molecular weight of the micelles at the various protein concentrations was calculated following methods well known in the art (The partial specific volume νj of the solute was taken to be […], and a solution density F of 1.0044 g/cm^3 was measured). At β-casein concentrations of 2 mg/mL and above under low pH conditions, the plot of the natural logarithm of the measured absorbance versus the square of the radius from the axis of rotation was not linear. To estimate Nagg, the limiting slope toward the outer edge of the sample cell was used to provide d ln(c)/dr^2. The molecular weight calculated using this slope was divided by the monomer molecular weight calculated from the β-casein amino acid sequence (24,000).
To determine the aggregation number of the micelles at pH 2.6, analytical ultracentrifugation experiments were conducted at various protein concentrations and at […] and IS of 0.002. Sample data are plotted in FIG. 7, showing data with the protein concentration at 5 mg/ml, and ionic strength (IS) of 0.002. […] The aggregation numbers calculated from the slope of this line confirmed that the protein is monomeric at these concentrations. At concentrations higher than the CMC, two regions could be defined, indicating the presence of two protein populations: monomers at relatively short radii (i.e., in FIG. 7 at r<6.5 or r2<43) and assemblies at large radii. The micelles at pH 2.6 are characterized by a small aggregation number of 3 around the CMC and 6 at higher concentrations. In contrast, Nagg of 20 was measured at pH 7.0 and ionic strength 0.1. […]

[2] = Isothermal titration calorimetry (ITC) of β-casein micellization
Method: […] The reaction cell (V=1.43 mL) was filled with degassed solvent (lactic acid at pH 2.6, or phosphate buffer at pH 7.0). The injector-stirrer syringe (289 μL) was loaded with a β-casein micellar solution (20 mg/mL). The micellar solution was injected into the reaction cell in 28 steps of 10 μL aliquots each, and the heat flow was measured. During the titration, the stirring speed was 310 rpm. The duration of each injection was 20 s, and the equilibration time between consecutive injections was 3 min. Such an interval was sufficient to equilibrate the reaction cell after every injection. Each experiment was performed at least three times. Calorimetric data analysis was carried out using Origin 5.0 software (MicroCal).
β-casein micellar solution was titrated into lactic acid buffer (pH 2.6) placed in the ITC cell, and the heat flow was measured as a function of time (FIG. 6A). Three factors contribute to the exothermic enthalpy changes observed at the initial injections: micelle dilution, demicellization, and dilution of individual β-casein molecules. The enthalpy changes decrease in magnitude as more protein is added and the concentration in the ITC cell increases. Eventually, the concentration in the cell exceeds the CMC and only micelle dilution contributes to the heat flow. In FIG. 6B the heat of the reaction, obtained by integrating the peaks of the individual injections given in FIG. 6A, is plotted against the β-casein concentration in the cell. A slow increase in the reaction enthalpy was observed, resulting in micellixation relative cooperativity (MR) of 0.14 mM (FIG. 6b), which is more than twice than the value found at pH 7.0 and IS of 0.1. FIG. 6B also presents the heat of demicellization, ΔHdemic, which equals the enthalpy difference between the two asymptotes of the sigmoid fit of the experimental data (obtained by using the Origin software). It is shown that at 24° C. ΔHdemic is ≦17.9 kJ/mol, relatively small compared with the −40.53 kJ/mol found at pH 7.0 and IS of 0.1. […] This value is approximately twice the CMC found at pH 7 and ionic strength 0.1. The small ΔHdemic, the high CMC, and the large MR indicate that the driving forces for micellization under acidic conditions are reduced compared with those at physiological pH and high IS.

[3] = Wide-angle X-ray diffraction (XRD); settings: powder / lyophilized specimen, 1:8 mole ratio where loaded
Method: The operating conditions were CuKα radiation (0.154 nm), voltage 40 kV and current 40 mA, in 20 recording range from 3° to 65°, at room temperature.

B1: β-casein: bovine β-casein self-assembled into unloaded micelles in acidic or neutral buffer (protein, UniProt P02666 16-224, looked up)
Beta-casein: RELEELNVPGEIVESLSSSEESITRINKKIEKFQSEEQQQTEDELQDKIHPFAQTQSLVYPFPGPIPNSLPQNIPPLTQTPVVVPPFLQPEVMGVSKVKEAMAPKHKEMPFPKYPVEPFTESQSLTLTDVENLHLPLPLLQSWMHQPHQPLPPTVMFPPQSVLSLSQSKVLPVPQKAVPYPQRDMPIQAFLLYQEPVLGPVRGPFPIIV
modifications: self-assembled micelles
notes: bovine β-casein self-assembled into unloaded micelles in acidic or neutral buffer
For B1, the “Aggregation number (ultracentrifugation)” value ([1]; pH 2.6, around the CMC) was 3, the “Aggregation number (ultracentrifugation)” value ([1]; pH 2.6, concentrations higher than the CMC, 24-25 °C) was 6 and the “Nagg (ultracentrifugation)” value ([1]; pH 7.0, ionic strength 0.1) was 20. For the same molecule, the “Micellization relative cooperativity (MR)” value ([2]; lactic acid pH 2.6, 24 °C) was 0.14 mM, the “Heat of demicellization ΔHdemic” value ([2]; pH 2.6, 24 °C) was at most 17.9 kJ/mol and the CMC ([2]; pH 2.6, 24 °C, by ITC) was 1.89 mg/mL. For the same molecule, the CMC ([2]; pH 2.6, 25 °C, by ITC) was 0.19 wt %, the CMC ([2]; pH 2.6, by ITC) was 0.079 mM and the “Heat of demicellization ΔHdemic” value ([2]; pH 7.0, IS 0.1) was -40.53 kJ/mol. For the same molecule, the “Solid form by X-ray diffraction” value [3] was “amorphous pattern”.
